Data: US20240132577A1 (US Dept. of Health and Human Services, published 2024)
“And” between values parts separate entries of the source, which are not always exact repeats. Equal values may be shown once. Read-outs that look alike come from different tables or passages of the source.

B1: mNb35 (VHH)
VHH: QVQLVESGGGLVQAGGSLRLSCAASGRTFSKYAMGWFRQAPGKERKFVATISWSGDSAFYADSVKGRFTISRDNARNTVYLQMNSLKPEDTAVYYCTADRGMGYGDFMDYWGQGTSVTVSS
B2: Nb56-tri-IgG1 (Fc fusion)
chain: QVQLQESGGGLVQAGDSLRLSCVASERTFRRYGMGWFRQAPGKEREFVAAVDRSHTKTGYADFVKGRFTISTNYENMVYLQMNSLKPEDTAVYYCAAPSYEKGSDPTSWNTDRGYDYWGQGTQVTVSSGGGGSGGGGSGGGGSQVQLQESGGGLVQAGDSLRLSCVASERTFRRYGMGWFRQAPGKEREFVAAVDRSHTKTGYADFVKGRFTISTNYENMVYLQMNSLKPEDTAVYYCAAPSYEKGSDPTSWNTDRGYDYWGQGTQVTVSSGGGGSGGGGSGGGGSQVQLQESGGGLVQAGDSLRLSCVASERTFRRYGMGWFRQAPGKEREFVAAVDRSHTKTGYADFVKGRFTISTNYENMVYLQMNSLKPEDTAVYYCAAPSYEKGSDPTSWNTDRGYDYWGQGTQVTVSSDKTHTCPPCPAPELLGGPSVFLFPPKPKDTLMISRTPEVTCVWDVSHEDPEVKFNWYVDGVEVHNAKTKPREEQYNSTYRWSVLTVLHQDWLNGKEYKCKVSNKALPAPIEKTISKAKGQPREPQVYTLPPSREEMTKNQVSLTCLVKGFYPSDIAVEWESNGQPENNYKTTPPVLDSDGSFFLYSKLTVDKSRWQQGNVFSCSVMHEALHNHYTQKSLSLSPGKHHHHHH
B3: Nb6 (VHH)
VHH: QVQLQESGGGLVQAGGSLRLSCAASGNIANSNSMAWWRQTPGNQHERVAIISHGVTNYADSVKGRFTVSRDNAKNTLYLQMNNLKPEDTAAYYCYADLFGNTYWGQGTQVTVSS
B4: Nb7 (VHH)
VHH: QVQLQESGGGLVQAGDSLRLSCLSSERTFRRYGIAWFRQAPGKEREFVAAVDRSHSQTNYADFVQGRFTISTVYAKNMVYLQMNSLKPEDTAVYYCAAASYEKGSDYTSWNTDRGYDYWGQGTQVTVSS
B5: Nb19-tri-IgG1 (Fc fusion)
chain: QVQLQESGGGLVQAGGSLRLSCAASGSGFSIHAMGWYRQAPGKQREFVAVVGHKTNYADSVKGRFTISRDVGKNTVELQMNSLKVEDTAVYYCYCNTIVTMTGVPDAVWGQGTQVTVSSGGGGSGGGGSGGGGSQVQLQESGGGLVQAGGSLRLSCAASGSGFSIHAMGWYRQAPGKQREFVAVVGHKTNYADSVKGRFTISRDVGKNTVELQMNSLKVEDTAVYYCYCNTIVTMTGVPDAVWGQGTQVTVSSGGGGSGGGGSGGGGSQVQLQESGGGLVQAGGSLRLSCAASGSGFSIHAMGWYRQAPGKQREFVAVVGHKTNYADSVKGRFTISRDVGKNTVELQMNSLKVEDTAVYYCYCNTIVTMTGVPDAVWGQGTQVTVSSDKTHTCPPCPAPELLGGPSVFLFPPKPKDTLMISRTPEVTCVWDVSHEDPEVKFNWYVDGVEVHNAKTKPREEQYNSTYRWSVLTVLHQDWLNGKEYKCKVSNKALPAPIEKTISKAKGQPREPQVYTLPPSREEMTKNQVSLTCLVKGFYPSDIAVEWESNGQPENNYKTTPPVLDSDGSFFLYSKLTVDKSRWQQGNVFSCSVMHEALHNHYTQKSLSLSPGKHHHHHH
B6: Nb17-tri-IgG1 (Fc fusion)
chain: QVQLQESGGGLVQTGGSLRLSCAASGRTFGIYRMGWFRQAPGKEREFVAAITSSADTAQYRDSVKGRFAISRDNAKNTLYLQMNSLKPEDTAIYYCAARDPTTLEYGNWGQGTQVTVSSGGGGSGGGGSGGGGSQVQLQESGGGLVQTGGSLRLSCAASGRTFGIYRMGWFRQAPGKEREFVAAITSSADTAQYRDSVKGRFAISRDNAKNTLYLQMNSLKPEDTAIYYCAARDPTTLEYGNWGQGTQVTVSSGGGGSGGGGSGGGGSQVQLQESGGGLVQTGGSLRLSCAASGRTFGIYRMGWFRQAPGKEREFVAAITSSADTAQYRDSVKGRFAISRDNAKNTLYLQMNSLKPEDTAIYYCAARDPTTLEYGNWGQGTQVTVSSDKTHTCPPCPAPELLGGPSVFLFPPKPKDTLMISRTPEVTCVWDVSHEDPEVKFNWYVDGVEVHNAKTKPREEQYNSTYRWSVLTVLHQDWLNGKEYKCKVSNKALPAPIEKTISKAKGQPREPQVYTLPPSREEMTKNQVSLTCLVKGFYPSDIAVEWESNGQPENNYKTTPPVLDSDGSFFLYSKLTVDKSRWQQGNVFSCSVMHEALHNHYTQKSLSLSPGKHHHHHH
B7: msNb12-tri-IgG2a (Fc fusion)
chain: QVKLEESGGGSVQAGGSLRLICTAPGLTHNNCGLDWYRRAPGKEREFVSSISADGTTSYADSVKGRFTISKDKVEDTVYLQMNSLKPEDTAIYSCKTAFPYFGNSCVLDYWGQGTSVTVSSGGGGSGGGGSGGGGSQVKLEESGGGSVQAGGSLRLICTAPGLTHNNCGLDWYRRAPGKEREFVSSISADGTTSYADSVKGRFTISKDKVEDTVYLQMNSLKPEDTAIYSCKTAFPYFGNSCVLDYWGQGTSVTVSSGGGGSGGGGSGGGGSQVKLEESGGGSVQAGGSLRLICTAPGLTHNNCGLDWYRRAPGKEREFVSSISADGTTSYADSVKGRFTISKDKVEDTVYLQMNSLKPEDTAIYSCKTAFPYFGNSCVLDYWGQGTSVTVSSEPKIPQPQPKPQPQPQPQPKPQPKPEPECTCPKCPAPELLGGPSVFLFPPKPKDTLMISRTPEVTCVWDVSHEDPEVKFNWYVDGVEVHNAKTKPREEQYNSTYRWSVLTVLHQDWLNGKEYKCKVSNKALPAPIEKTISKAKGQPREPQVYTLPPSREEMTKNQVSLTCLVKGFYPSDIAVEWESNGQPENNYKTTPPVLDSDGSFFLYSKLTVDKSRWQQGNVFSCSVMHEALHNHYTQKSLSLSPGKHHHHHH
B8: Nb43 (VHH)
VHH: QVQLQESGGGLVQAGDSLKLSCAASGRTFSDSAMGWFRQAPGEEREFVAVITWNGGTTYYADSVKGRFTISRDDAKNTVYLQMNSLKPEDTAVYYCAADTSRWDYSLTYHYTREYNYWGQGTQVTVSS
B9: Nb47 (VHH)
VHH: QVQLQESGGGLVQAGGSLRLSCAASGRTLSRYSMSWFRQAPGKEREFVAGIRWSGSNTYYADSMKQRFTISQDNVKNTVHLQMNSLKPEDTAVYYCAATSRSDHYLNAVAWTLPNEYDYWGQGTQVTVSS
B10: Nb15-tri-IgG1 (Fc fusion)
chain: QVQLQESGGGLVQAGGSLRVSCAASGLPFSDYLMGWFRQAPGKEREYVAAISQNGGHTYADSVLGRFTISRDNAKNTVYLQMNMLTPGDTAVYSCAARRPGGGRWDAAHDYNYWGQGTQVTVSSGGGGSGGGGSGGGGSQVQLQESGGGLVQAGGSLRVSCAASGLPFSDYLMGWFRQAPGKEREYVAAISQNGGHTYADSVLGRFTISRDNAKNTVYLQMNMLTPGDTAVYSCAARRPGGGRWDAAHDYNYWGQGTQVTVSSGGGGSGGGGSGGGGSQVQLQESGGGLVQAGGSLRVSCAASGLPFSDYLMGWFRQAPGKEREYVAAISQNGGHTYADSVLGRFTISRDNAKNTVYLQMNMLTPGDTAVYSCAARRPGGGRWDAAHDYNYWGQGTQVTVSSDKTHTCPPCPAPELLGGPSVFLFPPKPKDTLMISRTPEVTCVWDVSHEDPEVKFNWYVDGVEVHNAKTKPREEQYNSTYRWSVLTVLHQDWLNGKEYKCKVSNKALPAPIEKTISKAKGQPREPQVYTLPPSREEMTKNQVSLTCLVKGFYPSDIAVEWESNGQPENNYKTTPPVLDSDGSFFLYSKLTVDKSRWQQGNVFSCSVMHEALHNHYTQKSLSLSPGKHHHHHH

How the values were obtained:
Experiment in all cases: cell-based or functional assay
[1] = biological target: T1, SARS-CoV-2 S protein (C-terminally truncated, on pseudotyped virus) (SARS-CoV-2 (Wuhan-Hu-1), UniProt P0DTC2 14-1254)
[2] = biological target: T1, SARS-CoV-2 S protein (C-terminally …); remark: listed apart in the source
[3] = biological target: SARS-CoV-2 S protein K417N (on pseudotyped virus) (SARS-CoV-2, UniProt P0DTC2 14-1254)
[4] = biological target: SARS-CoV-2 S protein R683G (on pseudotyped virus) (SARS-CoV-2, UniProt P0DTC2 14-1254)
[5] = biological target: SARS-CoV-2 S protein E484K (on pseudotyped virus) (SARS-CoV-2, UniProt P0DTC2 14-1254)
[6] = biological target: SARS-CoV-2 S protein K417N + E484K + N501Y (on pseudotyped virus) (SARS-CoV-2, UniProt P0DTC2 14-1254)
[7] = biological target: SARS-CoV-2 S protein N501Y (on pseudotyped virus) (SARS-CoV-2, UniProt P0DTC2 14-1254)
[8] = biological target: T1, SARS-CoV-2 S protein (C-terminally …); remark: listed apart in the source

Binder | IC50 (pseudovirus neutralization) [1] | IC90 (pseudovirus neutralization) [1] | IC50 (pseudovirus neutralization) [2] | IC90 (pseudovirus neutralization) [2] | IC50 (variant pseudovirus neutralization) [3] | IC50 (variant pseudovirus neutralization) [4] | IC50 (variant pseudovirus neutralization) [5] | IC50 (variant pseudovirus neutralization) [6] | IC50 (variant pseudovirus neutralization) [7] | IC50 (variant pseudovirus neutralization) [8]
B1 | 209 ng/ml and 15.5 nM | 692 ng/ml and 51.3 nM |  |  |  |  |  |  |  | 
B2 |  |  | 3.91 ng/ml and 54.5 nM | 18.6 ng/ml and 260 nM | 0.021 nM | 0.008 nM | 0.037 nM | 0.014 nM | 0.028 nM | 0.043 nM
B3 | 141 ng/ml and 10.5 nM | 354 ng/ml and 26.3 nM |  |  |  |  |  |  |  | 
B4 | 43 ng/ml and 3.2 nM | 451 ng/ml and 33.4 nM |  |  |  |  |  |  |  | 
B5 |  |  | 0.65 ng/ml and 9.38 nM | 3.96 ng/ml and 57.6 nM | 0.006 nM | 0.003 nM | 0.095 nM | 0.115 nM | 0.01 nM | 0.012 nM
B6 |  |  | 1.24 ng/ml and 18 nM | 4.7 ng/ml and 68.2 nM | 0.008 nM | 0.004 nM | 50 nM | 47.4 nM | 0.01 nM | 0.015 nM
B7 |  |  | 4.71 ng/ml and 64.8 nM | 74 ng/ml and 1.02 µM | 0.068 nM | 0.178 nM | 0.149 nM | 0.09 nM | 0.082 nM | 0.091 nM
B8 | 281 ng/ml and 20.9 nM | 5330 ng/ml and 395 nM |  |  |  |  |  |  |  | 
B9 | 731 ng/ml and 54.2 nM | > 10000 ng/ml and > 500 nM |  |  |  |  |  |  |  | 
B10 |  |  | 10 ng/ml and 142 nM | 26.9 ng/ml and 381 nM | 0.027 nM | 0.013 nM | 0.041 nM | 0.03 nM | 0.021 nM | 0.073 nM
